Holding throughout (assay): EMSA
A general note: Mobility shift assays separate free from complexed probe on a gel.

One series concerns the target T1, His6-Glis3(ZFD)4m (mouse, UniProt Q6XP49 345-496, C444A).
T1 sequence: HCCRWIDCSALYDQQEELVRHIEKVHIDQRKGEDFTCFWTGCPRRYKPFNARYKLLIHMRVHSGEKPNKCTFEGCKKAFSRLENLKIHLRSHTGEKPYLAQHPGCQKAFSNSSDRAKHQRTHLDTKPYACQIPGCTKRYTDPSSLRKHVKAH

Another series addresses T2, His6-Glis3(ZFD)1m (mouse, UniProt Q6XP49 345-496, C347A).
T2 sequence: T1 sequence with C3A, A100C

Another series has as its target T3, His6-Glis3(ZFD)2m (mouse, UniProt Q6XP49 345-496, C381A).
T3 sequence: T1 sequence with C37A, A100C

The next series has as its target T4, His6-Glis3(ZFD)3m (mouse, UniProt Q6XP49 345-496, C414A).
T4 sequence: T1 sequence with C70A, A100C

Another series concerns the target T5, His6-Glis3(ZFD)5m (mouse, UniProt Q6XP49 345-496, C474A).
T5 sequence: T1 sequence with A100C, C130A

Another series addresses T6, His6-Glis3(ZFD) (mouse, UniProt Q6XP49 345-496).
T6 sequence: T1 sequence with A100C

Numbering of substitutions follows the chain as printed.

B1: Glis-BS consensus (dsDNA)
DNA 1: CGTGGGGGGTC
DNA 2: GACCCCCCACG
Regarding B1, the binding result with His6-Glis3(ZFD)4m, with His6-Glis3(ZFD)1m, with His6-Glis3(ZFD)2m, with His6-Glis3(ZFD)3m and in the series with His6-Glis3(ZFD)5m was “no binding” throughout. Moreover, the Kd with His6-Glis3(ZFD) turned out to be 3.69 ± 0.26 nM.

As a reminder, the Kd is the constant that tells how readily two partners part at equilibrium. Lower therefore signals higher affinity.

For the origin of these results see publication PMC2275160.
